The target in this assay is Cy3-labeled human histone nucleosome core particle reconstituted on the Widom 601 sequence (human, Cy3-maleimide on K119C). The assay can be described thus: single-molecule fluorescence imaging on a tethered nucleosome (SMADNE, LUMICKS C-trap); Cy3-labeled undamaged 601 NCP ligated into 6 kb biotinylated DNA handles and tethered between optically trapped streptavidin beads, 4–5 pN tension; tagged proteins from nuclear extract; lifetimes from CRTD; KD from koff, apparent kon and protein concentration. Particulars: one partner purified.

B1: Halo 635-ZnF-BRCT LIG3α (domain or fragment)
chain: MAEQRFCVDYAKRGTAGCKKCKEKIVKGVCRIGKVVPNPFSESGGDMKEWYHIKCMFEKLERARATTKKIEDLTELEGWEELEDNEKEQITQHIADLSSKAAGTPKKKAVVQAKLTTTGQVTSPVKGASFVTSTNPRKFSGFSAKPNNSGEAPSSPTPKRSLSSSKCDPEKADFTVVAGDEGSSTTGGSSEENKGPSGSAVSRKAPSKPSASTKKAEGKLSNSNSKDGNMQTAKPSAMKVGEKLATKSSPVKVGEKRKAADETLCQTKVLLDIFTGVRLYLPPSTPDFSRLRRYFVAFDGDLVQEFDMTSATHVLGSRDKNPAAQQVSPEWIWACIRKRRLVAPC
modifications: Janelia Fluor 635 HaloTag ligand on the HaloTag
As for B1, the Kd came to 1.1 ± 0.3 nM.

Values taken from publication PMC11952658, “The zinc finger of DNA Ligase 3α binds to nucleosomes via an arginine anchor” (Research Square, 2025).
